The source of these data is PMC8717942.

For assay [1], the target named is K29-linked diubiquitin (UniProt P0CG48). The assay is described as follows: crystal structure.
Assay [2] has the same target. The assay is described as follows: Western blot. Background: A western blot detects proteins with antibodies after separation by electrophoresis.
Assay [3] concerns the target His-tagged K29-linked diubiquitin (UniProt P0CG48). The assay is described as follows: SPR. Background: SPR reads the build-up and loss of mass on a sensor chip optically.
For assay [4], the target named is biotinylated K29-linked diUb (chemically synthesized) (UniProt P0CG48). The assay is described as follows: ELISA. (ELISA stands for enzyme-linked immunosorbent assay.)

B1: sAB-K29 (Fab, V domains shown)
VH: EVQLVESGGGLVQPGGSLRLSCAASGFNVSYSSIHWVRQAPGKGLEWVASIYSYYGSTYYADSVKGRFTISADTSKNTAYLQMNSLRAEDTAVYYCARYGFAGQPETWYAMDYWGQGTLVTVSS
VL: DIQMTQSPSSLSASVGDRVTITCRASQSVSSAVAWYQQKPGKAPKLLIYSASSLYSGVPSRFSGSRSGTDFTLTISSLQPEDFATYYCQQAYVEPITFGQGTKVEIK
As to B1, the stoichiometry N with K29-linked diubiquitin [1] was found to be 1. Further, in the assay with K29-linked diubiquitin [2], the fold more sensitive than for the other diUbs tested is more than 320 fold and the lowest amount detected came out at 0.78 ng. This molecule returned a Kd in assay [3] of 3.13 nM. In assay [4], the EC50 was 1.46 nM.

The stoichiometry N is the number of molecules, sites or subunits per partner or assembly. The Kd is a measure of binding affinity in units of concentration. Read a high Kd as weaker binding. By EC50 is commonly meant the midpoint of the concentration-response curve. Low values mean an effect from little substance, high ones a need for much substance.
